Experimental data reported in publication PMC10540216, “Activity Guided Azide-methyllysine Photo-trapping for Substrate Profiling of Lysine Demethylases” (Journal of the American Chemical Society, 2023).

B1: SYFA_HUMAN (protein, UniProt Q9Y285 2-508, looked up)
Phenylalanine--tRNA ligase …: ADGQVAELLLRRLEASDGGLDSAELAAELGMEHQAVVGAVKSLQALGEVIEAELRSTKHWELTAEGEEIAREGSHEARVFRSIPPEGLAQSELMRLPSGKVGFSKAMSNKWIRVDKSAADGPRVFRVVDSMEDEVQRRLQLVRGGQAEKLGEKERSELRKRKLLAEVTLKTYWVSKGSAFSTSISKQETELSPEMISSGSWRDRPFKPYNFLAHGVLPDSGHLHPLLKVRSQFRQIFLEMGFTEMPTDNFIESSFWNFDALFQPQQHPARDQHDTFFLRDPAEALQLPMDYVQRVKRTHSQGGYGSQGYKYNWKLDEARKNLLRTHTTSASARALYRLAQKKPFTPVKYFSIDRVFRNETLDATHLAEFHQIEGVVADHGLTLGHLMGVLREFFTKLGITQLRFKPAYNPYTEPSMEVFSYHQGLKKWVEVGNSGVFRPEMLLPMGLPENVSVIAWGLSLERPTMIKYGINNIRELVGHKVNLQMVYDSPLCRLDAEPRPPPTQEAA
B2: SYCM_HUMAN (protein, UniProt Q6PI48 48-645, looked up)
Aspartate--tRNA ligase, …: VVRTNTCGELRSSHLGQEVTLCGWIQYRRQNTFLVLRDFDGLVQVIIPQDESAASVKKILCEAPVESVVQVSGTVISRPAGQENPKMPTGEIEIKVKTAELLNACKKLPFEIKNFVKKTEALRLQYRYLDLRSFQMQYNLRLRSQMVMKMREYLCNLHGFVDIETPTLFKRTPGGAKEFLVPSREPGKFYSLPQSPQQFKQLLMVGGLDRYFQVARCYRDEGSRPDRQPEFTQIDIEMSFVDQTGIQSLIEGLLQYSWPNDKDPVVVPFPTMTFAEVLATYGTDKPDTRFGMKIIDISDVFRNTEIGFLQDALSKPHGTVKAICIPEGAKYLKRKDIESIRNFAADHFNQEILPVFLNANRNWNSPVANFIMESQRLELIRLMETQEEDVVLLTAGEHNKACSLLGKLRLECADLLETRGVVLRDPTLFSFLWVVDFPLFLPKEENPRELESAHHPFTAPHPSDIHLLYTEPKKARSQHYDLVLNGNEIGGGSIRIHNAELQRYILATLLKEDVKMLSHLLQALDYGAPPHGGIALGLDRLICLVTGSPSIRDVIAFPKSFRGHDLMSNTPDSVPPEELKPYHIRVSKPTDSKAERAH
B3: SF3B4_HUMAN (protein, UniProt Q15427 2-424, looked up)
Splicing factor 3B subunit 4: AAGPISERNQDATVYVGGLDEKVSEPLLWELFLQAGPVVNTHMPKDRVTGQHQGYGFVEFLSEEDADYAIKIMNMIKLYGKPIRVNKASAHNKNLDVGANIFIGNLDPEIDEKLLYDTFSAFGVILQTPKIMRDPDTGNSKGYAFINFASFDASDAAIEAMNGQYLCNRPITVSYAFKKDSKGERHGSAAERLLAAQNPLSQADRPHQLFADAPPPPSAPNPVVSSLGSGLPPPGMPPPGSFPPPVPPPGALPPGIPPAMPPPPMPPGAAGHGPPSAGTPGAGHPGHGHSHPHPFPPGGMPHPGMSQMQLAHHGPHGLGHPHAGPPGSGGQPPPRPPPGMPHPGPPPMGMPPRGPPFGSPMGHPGPMPPHGMRGPPPLMPPHGYTGPPRPPPYGYQRGPLPPPRPTPRPPVPPRGPLRGPLPQ
B4: SYDC_HUMAN (protein, UniProt P14868 1-501, looked up)
Aspartate--tRNA ligase, …: MPSASASRKSQEKPREIMDAAEDYAKERYGISSMIQSQEKPDRVLVRVRDLTIQKADEVVWVRARVHTSRAKGKQCFLVLRQQQFNVQALVAVGDHASKQMVKFAANINKESIVDVEGVVRKVNQKIGSCTQQDVELHVQKIYVISLAEPRLPLQLDDAVRPEAEGEEEGRATVNQDTRLDNRVIDLRTSTSQAVFRLQSGICHLFRETLINKGFVEIQTPKIISAASEGGANVFTVSYFKNNAYLAQSPQLYKQMCICADFEKVFSIGPVFRAEDSNTHRHLTEFVGLDIEMAFNYHYHEVMEEIADTMVQIFKGLQERFQTEIQTVNKQFPCEPFKFLEPTLRLEYCEALAMLREAGVEMGDEDDLSTPNEKLLGHLVKEKYDTDFYILDKYPLAVRPFYTMPDPRNPKQSNSYDMFMRGEEILSGAQRIHDPQLLTERALHHGIDLEKIKAYIDSFRFGAPPHAGGGIGLERVTMLFLGLHNVRQTSMFPRDPKRLTP
B5: CACP_HUMAN (protein, UniProt P43155 1-626, looked up)
Carnitine O-acetyltransferase: MLAFAARTVVKPLGFLKPFSLMKASSRFKAHQDALPRLPVPPLQQSLDHYLKALQPIVSEEEWAHTKQLVDEFQASGGVGERLQKGLERRARKTENWLSEWWLKTAYLQYRQPVVIYSSPGVMLPKQDFVDLQGQLRFAAKLIEGVLDFKVMIDNETLPVEYLGGKPLCMNQYYQILSSCRVPGPKQDTVSNFSKTKKPPTHITVVHNYQFFELDVYHSDGTPLTADQIFVQLEKIWNSSLQTNKEPVGILTSNHRNSWAKAYNTLIKDKVNRDSVRSIQKSIFTVCLDATMPRVSEDVYRSHVAGQMLHGGGSRLNSGNRWFDKTLQFIVAEDGSCGLVYEHAAAEGPPIVTLLDYVIEYTKKPELVRSPLVPLPMPKKLRFNITPEIKSDIEKAKQNLSIMIQDLDITVMVFHHFGKDFPKSEKLSPDAFIQMALQLAYYRIYGQACATYESASLRMFHLGRTDTIRSASMDSLTFVKAMDDSSVTEHQKVELLRKAVQAHRGYTDRAIRGEAFDRHLLGLKLQAIEDLVSMPDIFMDTSYAIAMHFHLSTSQVPAKTDCVMFFGPVVPDGYGVCYNPMEAHINFSLSAYNSCAETNAARLAHYLEKALLDMRALLQSHPRAKL
B6: CPSF7_HUMAN (protein, UniProt Q8N684 1-471, looked up)
Cleavage and polyadenylation …: MSEGVDLIDIYADEEFNQDPEFNNTDQIDLYDDVLTATSQPSDDRSSSTEPPPPVRQEPSPKPNNKTPAILYTYSGLRNRRAAVYVGSFSWWTTDQQLIQVIRSIGVYDVVELKFAENRANGQSKGYAEVVVASENSVHKLLELLPGKVLNGEKVDVRPATRQNLSQFEAQARKRECVRVPRGGIPPRAHSRDSSDSADGRATPSENLVPSSARVDKPPSVLPYFNRPPSALPLMGLPPPPIPPPPPLSSSFGVPPPPPGIHYQHLMPPPPRLPPHLAVPPPGAIPPALHLNPAFFPPPNATVGPPPDTYMKASAPYNHHGSRDSGPPPSTVSEAEFEDIMKRNRAISSSAISKAVSGASAGDYSDAIETLLTAIAVIKQSRVANDERCRVLISSLKDCLHGIEAKSYSVGASGSSSRKRHRSRERSPSRSRESSRRHRDLLHNEDRHDDYFQERNREHERHRDRERDRHH
B7: NUCB1_HUMAN (protein, UniProt Q02818 27-461, looked up)
Nucleobindin-1: VPLERGAPNKEETPATESPDTGLYYHRYLQEVIDVLETDGHFREKLQAANAEDIKSGKLSRELDFVSHHVRTKLDELKRQEVSRLRMLLKAKMDAEQDPNVQVDHLNLLKQFEHLDPQNQHTFEARDLELLIQTATRDLAQYDAAHHEEFKRYEMLKEHERRRYLESLGEEQRKEAERKLEEQQRRHREHPKVNVPGSQAQLKEVWEELDGLDPNRFNPKTFFILHDINSDGVLDEQELEALFTKELEKVYDPKNEEDDMREMEEERLRMREHVMKNVDTNQDRLVTLEEFLASTQRKEFGDTGEGWETVEMHPAYTEEELRRFEEELAAREAELNAKAQRLSQETEALGRSQGRLEAQKRELQQAVLHMEQRKQQQQQQQGHKAPAAHPEGQLKFHPDTDDVPVPAPAGDQKEVDTSEKKLLERLPEVEVPQHL
B8: SF3A3_HUMAN (protein, UniProt Q12874 1-501, looked up)
Splicing factor 3A subunit 3: METILEQQRRYHEEKERLMDVMAKEMLTKKSTLRDQINSDHRTRAMQDRYMEVSGNLRDLYDDKDGLRKEELNAISGPNEFAEFYNRLKQIKEFHRKHPNEICVPMSVEFEELLKARENPSEEAQNLVEFTDEEGYGRYLDLHDCYLKYINLKASEKLDYITYLSIFDQLFDIPKERKNAEYKRYLEMLLEYLQDYTDRVKPLQDQNELFGKIQAEFEKKWENGTFPGWPKETSSALTHAGAHLDLSAFSSWEELASLGLDRLKSALLALGLKCGGTLEERAQRLFSTKGKSLESLDTSLFAKNPKSKGTKRDTERNKDIAFLEAQIYEYVEILGEQRHLTHENVQRKQARTGEEREEEEEEQISESESEDEENEIIYNPKNLPLGWDGKPIPYWLYKLHGLNINYNCEICGNYTYRGPKAFQRHFAEWRHAHGMRCLGIPNTAHFANVTQIEDAVSLWAKLKLQKASERWQPDTEEEYEDSSGNVVNKKTYEDLKRQGLL

tested on: KDM4A-I71AzF; assay: CASI: photo-crosslinking with HEK293T cell extracts, StrepTactin enrichment and LC-MS/MS proteomics; assay type: binding, human; conditions: sheet "Final results but with 0.01";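 note: lysates from HEK293T cells pretreated with a KDM4 inhibitor to raise proteome methylation, affinity-purified after ±UV, gel-resolved, trypsin-digested, with exclusive unique peptides per protein averaged per condition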

Molecule | Fold change (+UV/-UV)
B1 | 4
B2 | 1
B3 | 0.75
B4 | 2
B5 | 0
B6 | 1
B7 | 3
B8 | 2
